Experimental data from the supplement of paper PMC9876800.

Tested on: peptide library, one residue held at a place counted from the S/T acceptor
Assay: relative phosphorylation of the sub-library (ratio to the mean residue at this position); human; higher = residue favoured
Conditions: G fixed; at -3
Outline: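 Human or orthologue kinase constructs, purified and recombinant, were incubated under kinase-specific conditions in 384-well plates with biotinylated degenerate peptide sub-libraries. Each sub-library fixed one residue at one position around a central Ser/Thr. Incubations lasted 90 min with peptides at 50 μM and 50 μM ATP spiked with γ-32P-ATP, after which spots on streptavidin membranes were phosphorimaged and quantified by densitometry. Relative sub-library phosphorylation is a ratio to the mean residue at that position.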

Sequence of SGK3, construct: aa119-end (Q96BR1 119-496, looked up): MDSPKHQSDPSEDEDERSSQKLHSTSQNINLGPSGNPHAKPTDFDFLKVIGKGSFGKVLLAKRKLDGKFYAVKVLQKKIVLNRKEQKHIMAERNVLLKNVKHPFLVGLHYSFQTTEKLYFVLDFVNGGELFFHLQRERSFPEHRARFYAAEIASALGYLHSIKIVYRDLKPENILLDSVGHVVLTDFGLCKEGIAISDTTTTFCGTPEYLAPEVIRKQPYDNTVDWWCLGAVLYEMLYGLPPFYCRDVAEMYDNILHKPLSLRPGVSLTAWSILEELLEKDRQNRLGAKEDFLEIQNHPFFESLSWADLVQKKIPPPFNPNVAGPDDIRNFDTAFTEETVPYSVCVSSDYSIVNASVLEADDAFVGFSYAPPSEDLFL
Sequence of GRK7, construct: Full length (Q8WTQ7 whole entry, looked up): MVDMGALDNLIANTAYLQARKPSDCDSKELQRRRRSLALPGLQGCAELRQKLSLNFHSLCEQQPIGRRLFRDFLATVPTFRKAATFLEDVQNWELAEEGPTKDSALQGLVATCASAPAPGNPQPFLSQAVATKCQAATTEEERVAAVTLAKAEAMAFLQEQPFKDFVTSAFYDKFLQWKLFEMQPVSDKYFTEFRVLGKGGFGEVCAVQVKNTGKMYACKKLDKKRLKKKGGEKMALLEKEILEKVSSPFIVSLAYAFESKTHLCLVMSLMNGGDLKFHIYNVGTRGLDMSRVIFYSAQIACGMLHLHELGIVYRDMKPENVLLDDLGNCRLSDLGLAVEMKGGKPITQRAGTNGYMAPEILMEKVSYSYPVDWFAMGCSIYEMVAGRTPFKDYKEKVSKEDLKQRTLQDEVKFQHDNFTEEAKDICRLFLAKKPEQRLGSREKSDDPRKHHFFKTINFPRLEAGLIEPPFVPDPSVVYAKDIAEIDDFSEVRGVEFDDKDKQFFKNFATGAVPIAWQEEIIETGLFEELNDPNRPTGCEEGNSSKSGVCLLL
Sequence of NEK11, construct: Full length (Q8NG66 whole entry, looked up): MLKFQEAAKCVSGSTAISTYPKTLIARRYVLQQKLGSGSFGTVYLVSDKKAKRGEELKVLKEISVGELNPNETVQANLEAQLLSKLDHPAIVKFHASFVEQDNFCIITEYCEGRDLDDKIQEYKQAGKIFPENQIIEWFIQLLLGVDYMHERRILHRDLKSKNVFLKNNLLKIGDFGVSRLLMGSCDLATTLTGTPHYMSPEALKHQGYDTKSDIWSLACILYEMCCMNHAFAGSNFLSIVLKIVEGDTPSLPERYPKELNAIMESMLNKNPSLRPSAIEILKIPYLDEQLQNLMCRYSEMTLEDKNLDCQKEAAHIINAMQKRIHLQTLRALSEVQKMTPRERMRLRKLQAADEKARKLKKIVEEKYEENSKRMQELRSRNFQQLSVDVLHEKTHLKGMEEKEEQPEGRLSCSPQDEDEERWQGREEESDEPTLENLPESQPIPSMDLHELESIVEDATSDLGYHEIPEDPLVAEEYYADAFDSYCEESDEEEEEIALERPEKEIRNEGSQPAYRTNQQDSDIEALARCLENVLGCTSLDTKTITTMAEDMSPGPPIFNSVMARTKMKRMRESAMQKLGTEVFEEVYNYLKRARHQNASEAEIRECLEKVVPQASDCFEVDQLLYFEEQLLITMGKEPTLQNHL
Sequence of GRK2, construct: Full length (P25098 whole entry, looked up): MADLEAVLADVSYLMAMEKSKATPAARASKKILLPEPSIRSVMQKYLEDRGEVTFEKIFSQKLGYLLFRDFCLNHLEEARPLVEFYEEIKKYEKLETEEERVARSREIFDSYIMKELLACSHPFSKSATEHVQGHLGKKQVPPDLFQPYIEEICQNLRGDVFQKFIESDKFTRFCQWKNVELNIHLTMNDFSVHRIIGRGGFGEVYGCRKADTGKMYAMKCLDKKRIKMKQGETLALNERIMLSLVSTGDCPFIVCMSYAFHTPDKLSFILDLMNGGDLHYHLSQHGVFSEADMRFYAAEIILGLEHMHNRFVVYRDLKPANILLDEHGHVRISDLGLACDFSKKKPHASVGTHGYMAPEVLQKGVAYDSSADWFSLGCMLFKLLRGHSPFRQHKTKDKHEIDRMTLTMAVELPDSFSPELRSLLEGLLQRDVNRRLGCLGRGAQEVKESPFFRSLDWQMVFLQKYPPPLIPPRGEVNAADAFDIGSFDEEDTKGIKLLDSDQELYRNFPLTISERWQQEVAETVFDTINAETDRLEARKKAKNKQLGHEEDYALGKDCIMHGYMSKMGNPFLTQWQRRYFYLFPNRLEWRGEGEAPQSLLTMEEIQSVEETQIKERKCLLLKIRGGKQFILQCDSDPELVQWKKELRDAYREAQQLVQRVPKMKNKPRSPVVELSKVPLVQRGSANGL
Sequence of TP53RK, construct: Full length (Q96S44 whole entry, looked up): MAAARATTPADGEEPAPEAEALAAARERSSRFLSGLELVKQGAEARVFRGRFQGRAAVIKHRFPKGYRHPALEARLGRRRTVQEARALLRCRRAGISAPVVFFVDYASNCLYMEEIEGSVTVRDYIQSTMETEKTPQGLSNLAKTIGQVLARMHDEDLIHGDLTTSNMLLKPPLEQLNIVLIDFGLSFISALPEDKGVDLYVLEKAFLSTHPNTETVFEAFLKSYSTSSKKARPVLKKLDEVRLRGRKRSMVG
Sequence of AURKB, construct: Full length (Q96GD4 whole entry, looked up): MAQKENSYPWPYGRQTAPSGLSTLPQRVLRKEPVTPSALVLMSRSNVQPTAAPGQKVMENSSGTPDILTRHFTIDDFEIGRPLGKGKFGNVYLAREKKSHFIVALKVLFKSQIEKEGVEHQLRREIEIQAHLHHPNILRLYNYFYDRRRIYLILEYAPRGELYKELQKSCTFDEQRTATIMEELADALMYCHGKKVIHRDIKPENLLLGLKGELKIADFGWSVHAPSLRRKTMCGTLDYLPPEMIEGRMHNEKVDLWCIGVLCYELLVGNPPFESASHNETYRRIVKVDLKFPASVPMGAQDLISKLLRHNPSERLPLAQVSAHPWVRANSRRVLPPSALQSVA
Sequence of NEK4, construct: Full length (P51957 whole entry, looked up): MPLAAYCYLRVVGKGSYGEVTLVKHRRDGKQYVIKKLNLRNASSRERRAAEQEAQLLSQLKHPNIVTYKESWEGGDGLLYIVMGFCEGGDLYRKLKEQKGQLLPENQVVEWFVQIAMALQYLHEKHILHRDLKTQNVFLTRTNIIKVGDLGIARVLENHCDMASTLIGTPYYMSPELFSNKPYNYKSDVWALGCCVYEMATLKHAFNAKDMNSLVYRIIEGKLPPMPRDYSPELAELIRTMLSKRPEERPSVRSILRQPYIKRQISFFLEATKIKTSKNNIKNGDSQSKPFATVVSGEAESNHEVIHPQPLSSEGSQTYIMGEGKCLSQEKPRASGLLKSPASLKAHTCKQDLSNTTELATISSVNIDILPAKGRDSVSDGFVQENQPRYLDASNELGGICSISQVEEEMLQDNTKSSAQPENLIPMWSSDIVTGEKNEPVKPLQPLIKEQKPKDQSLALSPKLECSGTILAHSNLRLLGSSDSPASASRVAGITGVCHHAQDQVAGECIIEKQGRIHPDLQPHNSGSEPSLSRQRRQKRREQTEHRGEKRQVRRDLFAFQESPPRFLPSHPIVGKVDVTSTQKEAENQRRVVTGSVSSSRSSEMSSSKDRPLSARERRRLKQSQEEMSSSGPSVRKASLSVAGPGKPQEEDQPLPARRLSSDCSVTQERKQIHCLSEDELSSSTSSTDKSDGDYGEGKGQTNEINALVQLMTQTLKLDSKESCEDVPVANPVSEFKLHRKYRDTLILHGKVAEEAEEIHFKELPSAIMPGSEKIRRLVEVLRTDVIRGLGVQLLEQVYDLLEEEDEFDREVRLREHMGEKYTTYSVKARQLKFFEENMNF

| Substance | relative phosphorylation |
| --- | --- |
| SGK3, construct: aa119-end (from UniProt Q96BR1) | 0.663 |
| GRK7, construct: Full length (from UniProt Q8WTQ7) | 1.24 |

Same assay, conditions: G fixed; at -4

| Substance | relative phosphorylation |
| --- | --- |
| NEK11, construct: Full length (from UniProt Q8NG66) | 1.2 |
| MKNK1, construct: Full length (D165-205) (from UniProt Q9BUB5) | 1.3 |
| TP53RK, construct: Full length (from UniProt Q96S44) | 1.12 |
| GRK2, construct: Full length (from UniProt P25098) | 0.897 |
| NEK4, construct: Full length (from UniProt P51957) | 1.32 |
| AURKB, construct: Full length (from UniProt Q96GD4) | 1.17 |
| SGK3, construct: aa119-end (from UniProt Q96BR1) | 1.23 |
| GRK7, construct: Full length (from UniProt Q8WTQ7) | 1.04 |

Same assay, conditions: G fixed; at -5

| Substance | relative phosphorylation |
| --- | --- |
| NEK11, construct: Full length (from UniProt Q8NG66) | 1.36 |
| MKNK1, construct: Full length (D165-205) (from UniProt Q9BUB5) | 0.945 |
| TP53RK, construct: Full length (from UniProt Q96S44) | 0.976 |
| GRK2, construct: Full length (from UniProt P25098) | 0.839 |
| NEK4, construct: Full length (from UniProt P51957) | 1.04 |
| AURKB, construct: Full length (from UniProt Q96GD4) | 1.24 |
| SGK3, construct: aa119-end (from UniProt Q96BR1) | 1.18 |
| GRK7, construct: Full length (from UniProt Q8WTQ7) | 1.34 |

Same assay, conditions: H fixed; at +1

| Substance | relative phosphorylation |
| --- | --- |
| NEK11, construct: Full length (from UniProt Q8NG66) | 0.625 |
| MKNK1, construct: Full length (D165-205) (from UniProt Q9BUB5) | 0.892 |
| TP53RK, construct: Full length (from UniProt Q96S44) | 1.07 |
| GRK2, construct: Full length (from UniProt P25098) | 0.977 |
| NEK4, construct: Full length (from UniProt P51957) | 0.775 |
| AURKB, construct: Full length (from UniProt Q96GD4) | 0.933 |
| SGK3, construct: aa119-end (from UniProt Q96BR1) | 0.707 |
| GRK7, construct: Full length (from UniProt Q8WTQ7) | 0.927 |

Same assay, conditions: H fixed; at +2

| Substance | relative phosphorylation |
| --- | --- |
| NEK11, construct: Full length (from UniProt Q8NG66) | 1.42 |
| MKNK1, construct: Full length (D165-205) (from UniProt Q9BUB5) | 1.83 |
| TP53RK, construct: Full length (from UniProt Q96S44) | 1.33 |
| GRK2, construct: Full length (from UniProt P25098) | 1.09 |
| NEK4, construct: Full length (from UniProt P51957) | 1.2 |
| AURKB, construct: Full length (from UniProt Q96GD4) | 1.6 |
| SGK3, construct: aa119-end (from UniProt Q96BR1) | 1.32 |
| GRK7, construct: Full length (from UniProt Q8WTQ7) | 1.21 |

Same assay, conditions: H fixed; at +3

| Substance | relative phosphorylation |
| --- | --- |
| NEK11, construct: Full length (from UniProt Q8NG66) | 0.962 |
| MKNK1, construct: Full length (D165-205) (from UniProt Q9BUB5) | 1.23 |
| TP53RK, construct: Full length (from UniProt Q96S44) | 1.07 |
| GRK2, construct: Full length (from UniProt P25098) | 1.02 |
| NEK4, construct: Full length (from UniProt P51957) | 1.1 |
| AURKB, construct: Full length (from UniProt Q96GD4) | 1.51 |
| SGK3, construct: aa119-end (from UniProt Q96BR1) | 1.05 |
| GRK7, construct: Full length (from UniProt Q8WTQ7) | 0.851 |

Same assay, conditions: H fixed; at +4

| Substance | relative phosphorylation |
| --- | --- |
| NEK11, construct: Full length (from UniProt Q8NG66) | 1.28 |
| MKNK1, construct: Full length (D165-205) (from UniProt Q9BUB5) | 1.13 |
| TP53RK, construct: Full length (from UniProt Q96S44) | 1.11 |
| GRK2, construct: Full length (from UniProt P25098) | 1.07 |
| NEK4, construct: Full length (from UniProt P51957) | 1.08 |
| AURKB, construct: Full length (from UniProt Q96GD4) | 1.09 |
| SGK3, construct: aa119-end (from UniProt Q96BR1) | 1.13 |
| GRK7, construct: Full length (from UniProt Q8WTQ7) | 1.08 |

Same assay, conditions: H fixed; at -1

| Substance | relative phosphorylation |
| --- | --- |
| NEK11, construct: Full length (from UniProt Q8NG66) | 1.1 |
| MKNK1, construct: Full length (D165-205) (from UniProt Q9BUB5) | 0.897 |
| TP53RK, construct: Full length (from UniProt Q96S44) | 0.847 |
| GRK2, construct: Full length (from UniProt P25098) | 1.06 |
| NEK4, construct: Full length (from UniProt P51957) | 1.02 |
| AURKB, construct: Full length (from UniProt Q96GD4) | 0.971 |
| SGK3, construct: aa119-end (from UniProt Q96BR1) | 1.1 |
| GRK7, construct: Full length (from UniProt Q8WTQ7) | 1.1 |

Same assay, conditions: H fixed; at -2

| Substance | relative phosphorylation |
| --- | --- |
| NEK11, construct: Full length (from UniProt Q8NG66) | 0.909 |
| MKNK1, construct: Full length (D165-205) (from UniProt Q9BUB5) | 0.748 |
| TP53RK, construct: Full length (from UniProt Q96S44) | 0.877 |
| GRK2, construct: Full length (from UniProt P25098) | 0.813 |
| NEK4, construct: Full length (from UniProt P51957) | 1.02 |
| AURKB, construct: Full length (from UniProt Q96GD4) | 0.542 |
| SGK3, construct: aa119-end (from UniProt Q96BR1) | 1.2 |
| GRK7, construct: Full length (from UniProt Q8WTQ7) | 0.573 |

Same assay, conditions: H fixed; at -3

| Substance | relative phosphorylation |
| --- | --- |
| NEK11, construct: Full length (from UniProt Q8NG66) | 0.976 |
| MKNK1, construct: Full length (D165-205) (from UniProt Q9BUB5) | 1.04 |
| TP53RK, construct: Full length (from UniProt Q96S44) | 0.987 |
| GRK2, construct: Full length (from UniProt P25098) | 0.831 |
| NEK4, construct: Full length (from UniProt P51957) | 0.998 |
| AURKB, construct: Full length (from UniProt Q96GD4) | 1.02 |
| SGK3, construct: aa119-end (from UniProt Q96BR1) | 1.74 |
| GRK7, construct: Full length (from UniProt Q8WTQ7) | 0.673 |

Same assay, conditions: H fixed; at -4

| Substance | relative phosphorylation |
| --- | --- |
| NEK11, construct: Full length (from UniProt Q8NG66) | 0.929 |
| MKNK1, construct: Full length (D165-205) (from UniProt Q9BUB5) | 1.12 |
| TP53RK, construct: Full length (from UniProt Q96S44) | 1.11 |
| GRK2, construct: Full length (from UniProt P25098) | 0.969 |
| NEK4, construct: Full length (from UniProt P51957) | 1.05 |
| AURKB, construct: Full length (from UniProt Q96GD4) | 1.03 |
| SGK3, construct: aa119-end (from UniProt Q96BR1) | 1.05 |
| GRK7, construct: Full length (from UniProt Q8WTQ7) | 0.699 |

Same assay, conditions: H fixed; at -5

| Substance | relative phosphorylation |
| --- | --- |
| NEK11, construct: Full length (from UniProt Q8NG66) | 1.11 |
| MKNK1, construct: Full length (D165-205) (from UniProt Q9BUB5) | 0.866 |
| TP53RK, construct: Full length (from UniProt Q96S44) | 1.17 |
